Columns and labels:
FcγRIIIa = biological target: T1, FcγRIIIa (human, UniProt P08637 17-208); assay: SPR (Biacore); KD of GpH7-TA7/GpH7-B78/GpL16-k0 for FcγRIIIa divided by the KD of this antibody
T1 construct: extracellular domain; Soluble extracellular domain with a C-terminal His tag, expressed in FreeStyle293 cells and used as the analyte in Biacore; also called FcgRIIIa; CD16A; not shown: His tag attached to the C terminus
Description: Then, K334G was also assessed in the same manner. GpH7-TA40 (SEQ ID NO: 47) resulting from the introduction of K334G into GpH7-TA7 was constructed, and expressed and prepared in combination with GpH7-B78 according to the method described in Reference Example 1. Furthermore, GpH7-TA50 (SEQ ID NO: 48) resulting from the introduction of K334G into GpH7-B78 was constructed, and expressed and prepared in combination with GpH7-TA7 according to the method described in Reference Example 1. To assess the effect of combinations with K334G, the prepared antibodies were compared for the FcγRIIIa binding according to the method described in Reference Example 2 (Table 18).
Analysis of interaction between objective antibody and the FcγR was carried out using Biacore T100 (GE Healthcare). HBS-EP+ (GE Healthcare) was used as the running buffer, and the measurement temperature was set to 25° C. Chips produced by immobilizing the antigen peptide by the amine coupling method to a Series S Sencor Chip CM5 (GE Healthcare), or alternatively, chips produced by allowing preliminarily biotinylated antigen peptides to interact with and immobilize onto a Series S Sensor Chip SA (certified) (GE Healthcare) were used. Antibodies of interest were captured onto an antigen peptide-immobilized chip, and allowed to interact to each FcγR diluted with running buffer. […]

FcγRIa = FcγRIa (human, UniProt P12314 16-292); assay: SPR (Biacore), relative binding
Sequence of FcγRIa (P12314 16-292): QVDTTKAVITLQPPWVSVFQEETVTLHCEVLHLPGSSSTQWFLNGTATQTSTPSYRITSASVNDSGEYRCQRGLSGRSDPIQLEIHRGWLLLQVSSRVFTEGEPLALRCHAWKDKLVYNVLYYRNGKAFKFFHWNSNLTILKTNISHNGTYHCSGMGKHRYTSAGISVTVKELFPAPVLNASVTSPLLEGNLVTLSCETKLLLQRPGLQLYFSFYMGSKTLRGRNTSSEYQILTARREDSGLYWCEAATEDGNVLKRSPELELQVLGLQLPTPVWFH

FcgRIa = biological target: T2, FcgRIa (human, UniProt P12314 16-292); assay: SPR (Biacore), antibody captured, FcgR as analyte
T2 construct: extracellular domain; also called FcγRIa; FcγRI
T2 sequence (P12314 16-292): as above
Description: (§1) Specifically, H240-Kn120 (SEQ ID NO: 99) resulting from introduction of S239M into H240-Kn067 and H240-Kn126 (SEQ ID NO: 100) resulting from introduction of Y235Q into H240-Kn120 were prepared according to the method described in Reference Example 1. […] Those described above were assayed for the binding to each FcgR according to the method described in Reference Example 8.
(§2) Analysis of interaction between objective antibody and the FcγR was carried out using Biacore T100 (GE Healthcare), Biacore T200, Biacore A100, and Biacore 4000. HBS-EP+ (GE Healthcare) was used as the running buffer, and the measurement temperature was set to 25° C. Chips produced by immobilizing the antigen peptide by the amine coupling method to a Series S sensor Chip CM5 (GE Healthcare), chips produced by allowing preliminarily biotinylated antigen peptides to interact with and immobilize onto a Series S Sensor Chip SA (certified) (GE Healthcare), chips produced by immobilizing Protein L (ACTIGEN, BioVision) to Series S Sencor Chip CM5 (GE Healthcare), or chips produced by immobilizing Protein A/G (Thermo Scientific) to Series S Sencor Chip CM5 (GE Healthcare) were used. Antibodies of interest were captured onto these chips, and allowed to interact to each FcγR diluted with running buffer. To regenerate and repeatedly use the chip, the antibodies captured onto the chip were washed off by reacting 10 mM glycine-HCl, pH 1.5.

FcgRIIa R = biological target: T3, FcgRIIa R (human, UniProt P12318 34-217); assay: SPR (Biacore), antibody captured, FcgR as analyte
T3 construct: extracellular domain; also called FcγRIIa R; FcγRIIa type R
T3 sequence (looked up): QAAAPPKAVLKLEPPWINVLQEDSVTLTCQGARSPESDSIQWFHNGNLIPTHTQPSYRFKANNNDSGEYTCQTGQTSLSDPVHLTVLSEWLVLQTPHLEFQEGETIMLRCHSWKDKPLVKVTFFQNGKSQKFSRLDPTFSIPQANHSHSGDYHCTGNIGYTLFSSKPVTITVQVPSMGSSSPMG
Description: as §1, §2

FcgRIIa H = biological target: T4, FcgRIIa H (human, UniProt P12318 34-217); assay: SPR (Biacore), antibody captured, FcgR as analyte
T4 construct: extracellular domain; also called FcγRIIa H; FcγRIIa type H
T4 sequence (looked up): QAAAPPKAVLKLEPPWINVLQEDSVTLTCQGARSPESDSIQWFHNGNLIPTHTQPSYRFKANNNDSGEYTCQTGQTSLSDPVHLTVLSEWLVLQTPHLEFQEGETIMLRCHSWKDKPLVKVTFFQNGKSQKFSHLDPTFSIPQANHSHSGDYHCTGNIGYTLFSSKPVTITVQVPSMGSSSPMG
Description: as §1, §2

FcgRIIb = biological target: T5, FcgRIIb (human, UniProt P31994 43-217); assay: SPR (Biacore), antibody captured, FcgR as analyte
T5 construct: extracellular domain; also called FcγRIIb; CD32B
T5 sequence (looked up): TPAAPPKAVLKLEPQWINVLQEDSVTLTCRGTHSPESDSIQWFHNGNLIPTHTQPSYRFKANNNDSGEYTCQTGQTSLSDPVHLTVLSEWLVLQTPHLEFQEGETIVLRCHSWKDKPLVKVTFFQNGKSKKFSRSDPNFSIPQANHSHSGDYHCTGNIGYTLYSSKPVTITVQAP
Description: as §1, §2

FcgRIIIa F = biological target: T6, FcgRIIIa F (human, UniProt P08637 17-208); assay: SPR (Biacore), antibody captured, FcgR as analyte
T6 construct: extracellular domain; polymorphic site made after J. Clin. Invest; also called FcγRIIIa F
T6 sequence (P08637 17-208): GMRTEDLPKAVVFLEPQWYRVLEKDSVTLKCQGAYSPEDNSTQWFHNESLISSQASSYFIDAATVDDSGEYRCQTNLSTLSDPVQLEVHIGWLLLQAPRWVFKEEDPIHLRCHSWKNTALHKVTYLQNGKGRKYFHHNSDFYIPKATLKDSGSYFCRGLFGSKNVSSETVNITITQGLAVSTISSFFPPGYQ
Description: as §1, §2

FcgRIIIa V = biological target: T7, FcgRIIIa V (human, UniProt P08637 17-208); assay: SPR (Biacore), antibody captured, FcgR as analyte
T7 construct: extracellular domain; polymorphic site made after J. Clin. Invest; also called FcγRIIIa V
T7 sequence (P08637 17-208 F176V limits assumed): as the sequence (P08637 17-208) above, with F160V counted along it
Description: as §1, §2

T1 sequence (P08637 17-208): as the sequence (P08637 17-208) above

B1: GpH7-TA40/GpH7-B78/GpL16-k0 (antibody, human IgG1, kappa)
heavy 1: QVQLVQSGAEVKKPGASVTVSCKASGYTFTDYEMHWIRQPPGEGLEWIGAIDPKTGDTAYSESFQDRVTLTADKSTSTAYMELSSLTSEDTAVYYCTRFYSYTYWGQGTLVTVSSASTKGPSVFPLAPSSKSTSGGTAALGCLVKDYFPEPVTVSWNSGALTSGVHTFPAVLQSSGLYSLSSVVTVPSSSLGTQTYICNVNHKPSNTKVDKKVEPKSCDKTHTCPPCPAPEYLWGPSVFLFPPKPKDTLMISRTPEVTCVVVDVSHEDPEVKFNWYVDGVEVHNAKTKPREEQYNATYRVVSVLTVLHQDWLNGKEYKCKVSNKALPAPIEGTISKAKGQPREPQVYTLPPSRKELTKNQVSLTCLVKGFYPSDIAVEWESNGQPENNYKTTPPVLDSDGSFFLYSKLTVDKSRWQQGNVFSCSVMHEALHNRYTQKSLSLSP
heavy 2: QVQLVQSGAEVKKPGASVTVSCKASGYTFTDYEMHWIRQPPGEGLEWIGAIDPKTGDTAYSESFQDRVTLTADKSTSTAYMELSSLTSEDTAVYYCTRFYSYTYWGQGTLVTVSSASTKGPSVFPLAPSSKSTSGGTAALGCLVKDYFPEPVTVSWNSGALTSGVHTFPAVLQSSGLYSLSSVVTVPSSSLGTQTYICNVNHKPSNTKVDKKVEPKSCDKTHTCPPCPAPELLGGPDVFLFPPKPKDTLMISRTPEVTCVVVDVSHEDPEVKFNWYVDGVEVHNAKTKPREEQYNSTYRVVSVLTVLHQDWLNGKEYKCKVSNKALPLPEEKTISKAKGQPREPQVYTLPPSRDELTKNQVSLTCLVKGFYPSDIAVEWESNGQPENNYKTTPPVLDSDGSFFLYSKLTVDKSRWQQGNVFSCSVMHEALHNHYTQESLSLSP
light: DIVMTQSPLSLPVTPGEPASISCQASESLVHSNRNTYLHWYLQKPGQSPQLLIYKVSNRFSGVPDRFSGSGSGTDFTLKISRVEAEDVGVYYCSQNTHVPPTFGQGTKVEIERTVAAPSVFIFPPSDEQLKSGTASVVCLLNNFYPREAKVQWKVDNALQSGNSQESVTEQDSKDSTYSLSSTLTLSKADYEKHKVYACEVTHQGLSSPVTKSFNRGEC
notes: Heterodimerized anti-glypican-3 IgG1 antibody; K334G is in the same H chain as L234Y/G236W/S298A; also called TA40/B78
KD ratio (FcγRIIIa): 0.5

B2: GpH7-B14/GpL16-k0 (antibody, human IgG1, kappa)
heavy: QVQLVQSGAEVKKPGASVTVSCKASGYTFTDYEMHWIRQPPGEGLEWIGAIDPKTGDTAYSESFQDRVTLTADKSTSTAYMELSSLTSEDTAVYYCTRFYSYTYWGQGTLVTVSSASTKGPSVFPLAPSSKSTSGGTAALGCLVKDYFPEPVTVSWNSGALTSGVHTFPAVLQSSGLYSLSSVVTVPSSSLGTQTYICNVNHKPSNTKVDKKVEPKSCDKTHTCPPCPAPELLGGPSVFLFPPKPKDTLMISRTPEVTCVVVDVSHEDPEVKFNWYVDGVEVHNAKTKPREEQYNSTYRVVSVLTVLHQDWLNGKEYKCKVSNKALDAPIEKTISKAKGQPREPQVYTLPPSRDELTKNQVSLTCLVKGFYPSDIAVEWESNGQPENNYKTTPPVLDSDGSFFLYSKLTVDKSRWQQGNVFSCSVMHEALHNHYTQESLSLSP
light: DIVMTQSPLSLPVTPGEPASISCQASESLVHSNRNTYLHWYLQKPGQSPQLLIYKVSNRFSGVPDRFSGSGSGTDFTLKISRVEAEDVGVYYCSQNTHVPPTFGQGTKVEIERTVAAPSVFIFPPSDEQLKSGTASVVCLLNNFYPREAKVQWKVDNALQSGNSQESVTEQDSKDSTYSLSSTLTLSKADYEKHKVYACEVTHQGLSSPVTKSFNRGEC
notes: P329D in both H chains
FcγRIa-binding activity relative to GpH7-A5/GpH7-B3/GpL16-k0 (FcγRIa): ≤ 0.2 fold

B3: GpH7-B15/GpL16-k0 (antibody, human IgG1, kappa)
heavy: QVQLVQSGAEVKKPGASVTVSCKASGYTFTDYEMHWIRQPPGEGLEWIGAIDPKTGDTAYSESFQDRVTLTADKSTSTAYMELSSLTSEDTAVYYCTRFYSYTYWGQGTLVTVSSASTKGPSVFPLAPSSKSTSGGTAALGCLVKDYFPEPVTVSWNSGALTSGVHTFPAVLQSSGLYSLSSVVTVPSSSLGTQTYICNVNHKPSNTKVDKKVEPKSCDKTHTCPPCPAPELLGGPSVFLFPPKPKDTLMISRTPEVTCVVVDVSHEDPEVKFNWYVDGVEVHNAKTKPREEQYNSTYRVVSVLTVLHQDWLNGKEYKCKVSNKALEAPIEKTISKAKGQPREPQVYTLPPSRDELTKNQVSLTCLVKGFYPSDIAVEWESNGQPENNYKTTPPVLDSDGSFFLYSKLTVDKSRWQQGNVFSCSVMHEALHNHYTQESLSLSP
light: DIVMTQSPLSLPVTPGEPASISCQASESLVHSNRNTYLHWYLQKPGQSPQLLIYKVSNRFSGVPDRFSGSGSGTDFTLKISRVEAEDVGVYYCSQNTHVPPTFGQGTKVEIERTVAAPSVFIFPPSDEQLKSGTASVVCLLNNFYPREAKVQWKVDNALQSGNSQESVTEQDSKDSTYSLSSTLTLSKADYEKHKVYACEVTHQGLSSPVTKSFNRGEC
notes: P329E in both H chains
FcγRIa-binding activity relative to GpH7-A5/GpH7-B3/GpL16-k0 (FcγRIa): ≤ 0.2 fold

B4: H240-Kn126/H240-Hl068/L73-k0 (antibody, human IgG1, kappa)
heavy 1: QDQLVQSGAEVKKPGASVKVSCKASGFNIKDTYIQWVRQAPGQGLEWMGRIDPLRKQTKYREKFEGRVTITADTSTNTAYMELSSLRSEDTAVYYCVRSGREFDYWGQGTLVTVSSASTKGPSVFPLAPSSKSTSGGTAALGCLVKDYFPEPVTVSWNSGALTSGVHTFPAVLQSSGLYSLSSVVTVPSSSLGTQTYICNVNHKPSNTKVDKKVEPKSCDKTHTCPPCPAPEYQWGPMVFLFPPKPKDTLMISRTPEVTCVVVDVSDEDPEVKFNWYVDGVEVHNAKTKPREEQYNATYRVVSVLTVLHQDWLNGKEYKCKVSNKDLPAPIEKTISKAKGQPREPQVCTLPPSRDELTKNQVSLWCLVKGFYPSDIAVEWESNGQPENNYKTTPPVLDSDGSFFLYSKLTVDKSRWQQGNVFSCSVMHEALHNHYTQKSLSLSP
heavy 2: QDQLVQSGAEVKKPGASVKVSCKASGFNIKDTYIQWVRQAPGQGLEWMGRIDPLRKQTKYREKFEGRVTITADTSTNTAYMELSSLRSEDTAVYYCVRSGREFDYWGQGTLVTVSSASTKGPSVFPLAPSSKSTSGGTAALGCLVKDYFPEPVTVSWNSGALTSGVHTFPAVLQSSGLYSLSSVVTVPSSSLGTQTYICNVNHKPSNTKVDKKVEPKSCDKTHTCPPCPAPELLGGPSVFLFPPKPKDTLMISRTPEVTCVVVDVSHEEPEVKFNWYVDGVEVHNAKTKPREEQYNSTYRVVSVLTVLHQDWLNGKEYKCKVSNDALPKPIEETISKAKGQPREPQVYTLPPSRCELTKNQVSLSCAVKGFYPSDIAVEWESNGQPENNYKTTPPVLDSDGSFFLVSKLTVDKSRWQQGNVFSCSVMHEALHNHYTQKSLSLSP
light: DIQMTQSPSSLSASVGDRVTITCRASQDIHKYIAWYQQKPGQAPRLLIQYTSTLQPGVPSRFSGSGSGTDYTFTISSLQPEDIATYYCLQYEQLRTFGGGTKVEIKRTVAAPSVFIFPPSDEQLKSGTASVVCLLNNFYPREAKVQWKVDNALQSGNSQESVTEQDSKDSTYSLSSTLTLSKADYEKHKVYACEVTHQGLSSPVTKSFNRGEC
notes: H240-Kn126: Y235Q introduced into H240-Kn120
Kd (FcgRIa): 0.4 nM
Kd (FcgRIIa R): 76 nM
Kd (FcgRIIa H): 170 nM
Kd (FcgRIIb): 520 nM
Kd (FcgRIIIa F): 3.7 nM
Kd (FcgRIIIa V): 0.64 nM

From patent US20150344570A1 (published 2015)
